Measurements as given in US20220387586A1 (Hoffmann-La Roche, published 2022).
Blank lines part the entries; values can stand above or below the binder they belong to.

What was measured:
[1] = target: T1, biotinylated PD1-ECD-AviHis (human, UniProt Q15116 25-170, biotinylated); test: ELISA on coated biotinylated PD1-ECD-AviHis
T1 construct: also called huPD1; hu PD1; not shown: Avi-His tag
Procedure: (§1) After washing (3×90 μl/well with PBST-buffer) 25 μl/well goat-anti-human H+L-POD (JIR, JIR109-036-088)/Sheep-anti-mouse-POD (GE Healthcare; NA9310) was added in 1:2000/1:1000 dilution and incubated at RT for 1 h on shaker. After washing (3×90 μl/well with PBST-buffer) 25 μl/well TMB substrate (Roche Catalogue No. 11835033001) was added and incubated until OD 2-3. Measurement took place at 370/492 nm.

[2] = target: T2, biotinylated cynoPD1-ECD-Biotin (cynomolgus, UniProt B0LAJ3 25-170, biotinylated; the site and any Avi or His tag are not stated in the passages shown); test: ELISA on coated cynoPD1-ECD-Biotin
T2 construct: also called cyPD1
Procedure: as §1, with “JIR109-036-088)” for “JIR109-036-088)/Sheep-anti-mouse-POD (GE Healthcare; NA9310)”, “1:1000” for “1:2000/1:1000”, “(Roche,” for “(Roche Catalogue No.”

[3] = target: T1, biotinylated PD1-ECD-AviHis; test: PD-L2 replacing ELISA on coated PD1-ECD-AviHis; competitor PD-L2 Fc chimera
Procedure: After washing (3×90 μl/well with PBST-buffer) 25 μl/well goat-anti-human H+L-POD (JIR, 109-036-088) was added in 1:2000 dilution and incubated at RT for 1 h on shaker. After washing (3×90 μl/well with PBST-buffer) 25 μl/well TMB (tetramethylbenzidine) substrate (Roche, #11835033001) was added and incubated until OD 2-3. Measurement took place at 370/492 nm.

[4] = target: T3, recombinant Human LAG-3 Fc Chimera Protein (R&D Systems, 2319-L3) (human, UniProt P18627 29-450); test: ELISA on coated Human LAG-3 Fc Chimera (rel. EC50)
T3 construct: Bought protein; also called huLAG3; not shown: Fc part of the chimera
T3 sequence: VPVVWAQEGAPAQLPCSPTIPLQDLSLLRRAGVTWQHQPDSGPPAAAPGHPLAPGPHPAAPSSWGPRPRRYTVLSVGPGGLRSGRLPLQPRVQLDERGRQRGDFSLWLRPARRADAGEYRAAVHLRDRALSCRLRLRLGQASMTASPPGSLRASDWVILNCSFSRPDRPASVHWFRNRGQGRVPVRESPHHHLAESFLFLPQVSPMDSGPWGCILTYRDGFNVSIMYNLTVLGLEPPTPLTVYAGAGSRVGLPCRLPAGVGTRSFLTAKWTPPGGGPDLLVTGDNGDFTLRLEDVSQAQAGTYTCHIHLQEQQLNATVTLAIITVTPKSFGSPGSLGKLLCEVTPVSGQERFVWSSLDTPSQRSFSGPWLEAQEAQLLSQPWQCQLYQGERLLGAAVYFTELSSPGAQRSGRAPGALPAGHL
Procedure: After washing (3×90 μl/well with PBST-buffer) each well was incubated with 90 μl blocking buffer (PBS+2% BSA+0.05% Tween 20) for 1 h at room temperature. […] After washing (3×90 μl/well with PBST-buffer) 25 μl/well goat anti-Human Ig κ chain antibody-HRP conjugate (Milipore, AP502P) was added in a 1:2000 dilution and incubated at RT for 1 h. After washing (3×90 μl/well with PBST-buffer) 25 μl/well TMB substrate (Roche, 11835033001) was added and incubated for 2-10 min. Measurement took place on a Tecan Safire 2 instrument at 370/492 nm.

[5] = target: T1, biotinylated PD1-ECD-AviHis; test: ELISA on coated biotinylated PD1-ECD-AviHis (rel. EC50)
Procedure: After washing (3×90 μl/well with PBST-buffer) 25 μl/well goat-anti-human H+L-POD (JIR, JIR109-036-098) was added in 1:5000 dilution and incubated at RT for 1 h on a shaker. After washing (3×90 μl/well with PBST-buffer) 25 μl/well of TMB substrate (Roche, 11835033001) was added and incubated until OD 2-3. Measurement took place at 370/492 nm.

[6] = target: T4, full-length human PD1 on cells (human, UniProt Q15116 25-288); test: cell ELISA on CHO-K1 cells expressing full-length human PD1 (rel. EC50)
T4 construct: also called CHO-PD1
Procedure: (to avoid internalization). After washing carefully (1×90 μl/well PBST) cells were fixed by adding 30 μl/well 0.05% Glutaraldehyde (Sigma, Cat.No: G5882, 25%) diluted in 1×PBS-buffer and incubated for 10 min at RT. After washing (3×90 μl/well PBST) 25 μl/well secondary antibody was added for detection: goat-anti-human H+L-POD (JIR, JIR109-036-088)/Sheep-anti-mouse-POD (GE NA9310) followed by 1 h incubation at RT on shaker. After washing (3×90 μl/well PBST) 25 μl/well TMB substrate solution (Roche 11835033001) was added and incubated until OD 1.0-2.0. Plates were measured at 370/492 nm.

[7] = target: T5, LAG3 on cells (recombinant CHO cells expressing Lag3) (human, UniProt P18627 29-525); test: cell ELISA on recombinant CHO cells expressing Lag3 (rel. EC50)
T5 construct: The cell ELISA paragraphs say only 'Lag3'; also called CHO-LAG3; Lag3 cells
T5 sequence: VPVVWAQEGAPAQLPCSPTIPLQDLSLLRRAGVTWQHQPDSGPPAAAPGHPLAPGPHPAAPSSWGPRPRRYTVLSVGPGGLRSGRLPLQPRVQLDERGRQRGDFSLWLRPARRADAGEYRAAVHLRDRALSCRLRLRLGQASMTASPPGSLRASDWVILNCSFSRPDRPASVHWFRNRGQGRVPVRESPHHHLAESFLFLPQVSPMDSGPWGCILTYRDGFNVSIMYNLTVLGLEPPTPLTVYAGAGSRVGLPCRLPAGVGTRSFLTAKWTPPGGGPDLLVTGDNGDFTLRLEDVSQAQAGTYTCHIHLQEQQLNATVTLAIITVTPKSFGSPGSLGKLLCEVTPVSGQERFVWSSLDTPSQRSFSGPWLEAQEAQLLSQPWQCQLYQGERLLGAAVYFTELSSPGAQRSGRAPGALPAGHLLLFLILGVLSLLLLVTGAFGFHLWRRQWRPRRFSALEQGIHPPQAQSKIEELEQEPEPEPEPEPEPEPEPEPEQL
Procedure: After washing (1×90 μl in PBST) cells were fixed by addition of 30 μl/well glutaraldehyde to a final concentration of 0.05% (Sigma Cat.No: G5882), 10 min at room temperature. After washing (3×90 μl/well with PBST-buffer) 25 μl/well goat anti-Human Ig κ chain antibody-HRP conjugate (Milipore, AP502P) was added in a 1:1000 dilution and incubated at RT for 1 h. After washing (3×90 μl/well with PBST-buffer) 25 μl/well TMB substrate (Roche, 11835033001) was added and incubated for 6-10 min. Measurement took place on a Tecan Safire 2 instrument at 370/492 nm.

biotinylated-Lag3 = target: T6, biotinylated-Lag3 (UniProt P18627 23-450, limits assumed, biotinylated); test: ELISA, inhibition of biotinylated-Lag3 binding to MHC-II on A375 cells (competitor MHC-II)
T6 construct: Probably a human LAG3 ECD construct; also called Lag3 (MHCII/ELISA)
T6 sequence (looked up): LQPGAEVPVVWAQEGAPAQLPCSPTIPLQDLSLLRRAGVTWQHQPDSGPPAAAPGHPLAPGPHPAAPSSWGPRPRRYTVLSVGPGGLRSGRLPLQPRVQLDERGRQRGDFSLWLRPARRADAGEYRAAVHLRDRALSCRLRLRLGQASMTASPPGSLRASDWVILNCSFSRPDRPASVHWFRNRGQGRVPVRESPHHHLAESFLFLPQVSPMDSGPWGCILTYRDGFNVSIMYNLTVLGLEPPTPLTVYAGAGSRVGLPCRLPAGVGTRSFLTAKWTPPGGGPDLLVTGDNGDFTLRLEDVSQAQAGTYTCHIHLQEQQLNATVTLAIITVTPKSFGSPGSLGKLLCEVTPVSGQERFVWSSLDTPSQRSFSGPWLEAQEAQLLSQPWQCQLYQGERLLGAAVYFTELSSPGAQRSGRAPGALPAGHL
Procedure: 25 μl/well of A375 cells (10000 cells/well) were seeded into tissue culture treated 384-well plates (Corning, 3701) and incubated at 37° C. overnight. […] After washing (1×90 μl in PBST) cells were fixed by addition of 30 μl/well glutaraldehyde to a final concentration of 0.05% (Sigma Cat.No: G5882), 10 min at room temperature. After washing (3×90 μl/well with PBST-buffer) 25 μl/well Poly-HRP40-Streptavidin (Fitzgerald, 65R-S104PHRPx) was added in a 1:2000 or 1:8000 dilution and incubated at RT for 1 h. After washing (3×90 μl/well with PBST-buffer) 25 μl/well TMB substrate (Roche, 11835033001) was added and incubated for 2 to 10 min. Measurement took place on a Tecan Safire 2 instrument at 370/492 nm.

T4 sequence (Q15116 25-288 limits assumed): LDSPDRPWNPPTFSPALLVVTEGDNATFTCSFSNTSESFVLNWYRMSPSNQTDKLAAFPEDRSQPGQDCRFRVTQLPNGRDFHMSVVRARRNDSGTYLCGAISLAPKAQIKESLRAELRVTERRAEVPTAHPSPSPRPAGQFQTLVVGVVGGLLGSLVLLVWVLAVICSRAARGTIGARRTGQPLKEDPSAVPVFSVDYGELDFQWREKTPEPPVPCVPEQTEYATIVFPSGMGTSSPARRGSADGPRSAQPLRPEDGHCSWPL
T1 sequence (Q15116 25-170): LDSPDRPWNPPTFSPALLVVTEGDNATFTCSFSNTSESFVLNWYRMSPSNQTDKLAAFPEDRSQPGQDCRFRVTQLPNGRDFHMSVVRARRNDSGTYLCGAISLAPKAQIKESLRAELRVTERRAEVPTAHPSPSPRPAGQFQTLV
T2 sequence (B0LAJ3 entry or part of it limits assumed): as the sequence (Q15116 25-170) above, with D2E, P10A, V19L, T35A, Q75R, T144A counted along it

- EC50 [1]: 0.0263 µg/mL
- EC50 [2]: 0.0224 µg/mL
- IC50 [3]: 0.086 µg/mL
B1: PD1-0078 (antibody, V domains shown)
VH: QVQLQQPGAELVKPGASVKMSCKASGYTFTSTWMHWVKQRPGQGLEWIGAIDPSDSYTTYNQKFKGKATLTVDTSSTTAYMQLSSLTSEDSAVYYCTRSPFDYWGQGTTLTVSS
VL: DIVMTQSHKFMSTSVGDRVSITCKASQDVSTAVAWYQQKPGQSPKLLIYSASYRYTGVPDRFTGSGSGTDFTFAISSVQAEDLAVYYCQQHYSHPFTFGSGTKLEIK

- EC50 [4]: 1.14 nM
- EC50 [5]: 0.16 nM
- EC50 [6]: 0.28 nM
- EC50 [7]: 0.72 nM
- IC50 (biotinylated-Lag3): 0.77 nM
B2: PD1/LAG3 0222 (bispecific antibody, human IgG1, kappa, L234A L235A)
heavy 1: not shown
heavy 2: QVQLQQWGAGLLKPSETLSLTCAVYGGSFSDYYWNWIRQPPGKGLEWIGEINHNGNTNSNPSLKSRVTLSLDTSKNQFSLKLRSVTAADTAVYYCAFGYSDYEYNWFDPWGQGTLVTVSSASTKGPSVFPLAPSSKSTSGGTAALGCLVEDYFPEPVTVSWNSGALTSGVHTFPAVLQSSGLYSLSSVVTVPSSSLGTQTYICNVNHKPSNTKVDEKVEPKSCDKTHTCPPCPAPEAAGGPSVFLFPPKPKDTLMISRTPEVTCVVVDVSHEDPEVKFNWYVDGVEVHNAKTKPREEQYNSTYRVVSVLTVLHQDWLNGKEYKCKVSNKALGAPIEKTISKAKGQPREPQVCTLPPSRDELTKNQVSLSCAVKGFYPSDIAVEWESNGQPENNYKTTPPVLDSDGSFFLVSKLTVDKSRWQQGNVFSCSVMHEALHNHYTQKSLSLSPGK
light 1: QVQLQQSGPELVRPGVSVKISCKGSGYTFTDYAMHWVKQSHARTLEWIGVISTYSGDTNYNQKFKDKATMTVDKSSSTAYLELARMTSEDSAIYYCARLGITTGFAYWGQGTLVTVSAASVAAPSVFIFPPSDEQLKSGTASVVCLLNNFYPREAKVQWKVDNALQSGNSQESVTEQDSKDSTYSLSSTLTLSKADYEKHKVYACEVTHQGLSSPVTKSFNRGEC
light 2: not shown
notes: 1+1 CrossMAb Vh-VL; also called PD1(0069)/aLAG3(25F7) 1+1; PD1-0069/LAG3 25F7 (1 + 1)

- EC50 [4]: 0.86 nM
- EC50 [5]: 0.04 nM
- EC50 [6]: 0.06 nM
- EC50 [7]: 0.86 nM
- IC50 (biotinylated-Lag3): 0.79 nM
B3: PD1/LAG3 0224 (bispecific antibody, human IgG1, kappa, L234A L235A)
heavy 1: not shown
heavy 2: B2 heavy 2
light 1: DVQLQESGPGLVKPSQSLSLTCTVTGYSITSDYAWNWIRQFPGDKLEWLGYITYSGFTNYNPSLKSRISISRDTSKNQFFLQLNSVATEDTATYYCARWHGSAPWYFDYWGRGTTLTVSSASVAAPSVFIFPPSDEQLKSGTASVVCLLNNFYPREAKVQWKVDNALQSGNSQESVTEQDSKDSTYSLSSTLTLSKADYEKHKVYACEVTHQGLSSPVTKSFNRGEC
light 2: not shown
notes: 1+1 CrossMAb Vh-VL; also called PD1(0098)/aLAG3(25F7) 1+1; PD1-0098/LAG3 25F7 (1 + 1)

- EC50 [4]: 0.05 nM
- EC50 [5]: 0.04 nM
- EC50 [6]: 0.36 nM
- EC50 [7]: 0.48 nM
- IC50 (biotinylated-Lag3): 0.52 nM
B4: PD1/LAG3 9010 (bispecific antibody, human IgG1, kappa, L234A L235A)
heavy: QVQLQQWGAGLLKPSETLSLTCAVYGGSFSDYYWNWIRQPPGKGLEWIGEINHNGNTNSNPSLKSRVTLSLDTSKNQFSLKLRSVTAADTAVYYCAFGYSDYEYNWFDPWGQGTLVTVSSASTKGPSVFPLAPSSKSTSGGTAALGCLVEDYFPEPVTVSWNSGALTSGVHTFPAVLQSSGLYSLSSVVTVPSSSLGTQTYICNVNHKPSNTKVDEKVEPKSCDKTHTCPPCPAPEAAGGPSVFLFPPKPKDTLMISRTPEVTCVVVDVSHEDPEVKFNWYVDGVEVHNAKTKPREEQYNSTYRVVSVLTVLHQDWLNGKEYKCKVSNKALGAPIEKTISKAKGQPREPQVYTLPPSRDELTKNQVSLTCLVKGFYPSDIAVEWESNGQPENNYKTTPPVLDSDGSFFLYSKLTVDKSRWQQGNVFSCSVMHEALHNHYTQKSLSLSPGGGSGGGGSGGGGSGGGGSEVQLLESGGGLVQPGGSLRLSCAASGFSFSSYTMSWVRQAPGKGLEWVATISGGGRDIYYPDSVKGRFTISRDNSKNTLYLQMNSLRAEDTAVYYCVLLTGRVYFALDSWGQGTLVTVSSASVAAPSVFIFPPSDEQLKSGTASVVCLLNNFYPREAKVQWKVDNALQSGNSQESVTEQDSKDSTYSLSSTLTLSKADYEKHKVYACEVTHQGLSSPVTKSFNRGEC
light 1: DIVMTQSPDSLAVSLGERATINCKASESVDTSDNSFIHWYQQKPGQSPKLLIYRSSTLESGVPDRFSGSGSGTDFTLTISSLQAEDVAVYYCQQNYDVPWTFGQGTKVEIKSSASTKGPSVFPLAPSSKSTSGGTAALGCLVKDYFPEPVTVSWNSGALTSGVHTFPAVLQSSGLYSLSSVVTVPSSSLGTQTYICNVNHKPSNTKVDKKVEPKSC
light 2: not shown
notes: 2+2 format
